# Assay results taken from paper PMC2952847.
# T1: RHAU(ΔGly–RSM)-FLAG (Homo sapiens, UniProt Q9H2U1 105-1008)
# T1 sequence: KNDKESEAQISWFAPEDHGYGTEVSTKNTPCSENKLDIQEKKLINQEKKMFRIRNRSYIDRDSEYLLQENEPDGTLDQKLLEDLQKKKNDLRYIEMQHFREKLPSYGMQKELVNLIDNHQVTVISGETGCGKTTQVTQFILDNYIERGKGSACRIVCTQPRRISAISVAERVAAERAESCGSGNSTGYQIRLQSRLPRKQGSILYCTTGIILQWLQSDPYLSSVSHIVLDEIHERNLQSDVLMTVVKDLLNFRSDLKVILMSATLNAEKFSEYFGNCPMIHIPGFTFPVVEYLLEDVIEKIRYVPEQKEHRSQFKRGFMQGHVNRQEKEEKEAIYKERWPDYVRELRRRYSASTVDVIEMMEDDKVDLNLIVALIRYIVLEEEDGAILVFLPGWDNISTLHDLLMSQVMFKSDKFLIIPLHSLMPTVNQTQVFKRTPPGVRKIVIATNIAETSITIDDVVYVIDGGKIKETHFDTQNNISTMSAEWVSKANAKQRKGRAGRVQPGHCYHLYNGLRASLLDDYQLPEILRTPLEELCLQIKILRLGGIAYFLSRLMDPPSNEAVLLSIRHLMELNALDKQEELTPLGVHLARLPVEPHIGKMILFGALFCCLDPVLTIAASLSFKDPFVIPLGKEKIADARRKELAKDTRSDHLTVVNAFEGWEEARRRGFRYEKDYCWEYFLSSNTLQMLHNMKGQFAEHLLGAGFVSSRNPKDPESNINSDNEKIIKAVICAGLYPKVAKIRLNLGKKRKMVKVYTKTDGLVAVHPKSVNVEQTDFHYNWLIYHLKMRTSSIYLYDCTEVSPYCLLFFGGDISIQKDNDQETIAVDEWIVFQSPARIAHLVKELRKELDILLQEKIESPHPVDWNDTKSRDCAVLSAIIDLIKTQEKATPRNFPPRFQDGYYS
# T2: GST-RHAU(WT) (Homo sapiens, UniProt Q9H2U1 1-1008)
# T2 sequence: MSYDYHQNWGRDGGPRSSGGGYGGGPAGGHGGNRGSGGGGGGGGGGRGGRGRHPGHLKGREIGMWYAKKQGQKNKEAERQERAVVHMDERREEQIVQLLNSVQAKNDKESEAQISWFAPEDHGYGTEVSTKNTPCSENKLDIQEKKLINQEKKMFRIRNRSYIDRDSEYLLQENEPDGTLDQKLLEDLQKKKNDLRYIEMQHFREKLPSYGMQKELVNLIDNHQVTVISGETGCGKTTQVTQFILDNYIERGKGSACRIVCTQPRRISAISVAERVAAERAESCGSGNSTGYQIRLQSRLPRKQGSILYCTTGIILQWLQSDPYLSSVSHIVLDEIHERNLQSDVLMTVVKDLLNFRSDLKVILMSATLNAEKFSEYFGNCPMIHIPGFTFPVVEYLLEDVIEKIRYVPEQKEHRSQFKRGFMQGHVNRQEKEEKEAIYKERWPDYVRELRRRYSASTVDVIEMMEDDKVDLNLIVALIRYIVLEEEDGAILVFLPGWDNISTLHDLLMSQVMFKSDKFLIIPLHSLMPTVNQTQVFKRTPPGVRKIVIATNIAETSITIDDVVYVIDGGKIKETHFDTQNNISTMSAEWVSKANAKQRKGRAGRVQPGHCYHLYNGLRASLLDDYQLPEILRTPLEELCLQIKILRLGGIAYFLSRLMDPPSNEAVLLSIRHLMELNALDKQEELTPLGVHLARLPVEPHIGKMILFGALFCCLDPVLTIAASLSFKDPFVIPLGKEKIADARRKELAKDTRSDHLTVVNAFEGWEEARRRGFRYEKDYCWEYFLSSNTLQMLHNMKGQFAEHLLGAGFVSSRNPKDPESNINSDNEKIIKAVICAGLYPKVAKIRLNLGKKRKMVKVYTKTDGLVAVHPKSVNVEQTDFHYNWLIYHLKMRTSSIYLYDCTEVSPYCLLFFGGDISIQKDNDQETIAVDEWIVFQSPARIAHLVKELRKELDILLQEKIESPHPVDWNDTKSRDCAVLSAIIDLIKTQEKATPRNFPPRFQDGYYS
# What was measured:
# RHAU(ΔGly–RSM)-FLAG = molecular target: T1, RHAU(ΔGly–RSM)-FLAG; experiment: EMSA
# GST-RHAU(WT) = molecular target: T2, GST-RHAU(WT); experiment: EMSA
binder,measurement,setting,value
AAAAAAAAAAAAAAAGGGGGAAAAAAAAAAAAAAA (structured_RNA) [tetramolecular G4-rAGA],binding result,RHAU(ΔGly–RSM)-FLAG,no binding
same,Kd,GST-RHAU(WT),14 nM
